The labels stand for the following.
B1: Urelumab (antibody, V domains shown)
VH: QVQLQQWGAGLLKPSETLSLTCAVYGGSFSGYYWSWIRQSPEKGLEWIGEINHGGYVTYNPSLESRVTISVDTSKNQFSLKLSSVTAADTAVYYCARDYGPGNYDWYFDLWGRGTLVTVSS
VL: EIVLTQSPATLSLSPGERATLSCRASQSVSSYLAWYQQKPGQAPRLLIYDASNRATGIPARFSGSGSGTDFTLTISSLEPEDFAVYYCQQRSNWPPALTFGGGTKVEIK
B2: cyno 4-1BB overexpressed on CHO cells (receptor)
chain: LQDLCSNCPAGTFCDNNRSQICSPCPPNSFSSAGGQRTCDICRQCKGVFKTRKECSSTSNAECDCISGYHCLGAECSMCEQDCKQGQELTKKGCKDCCFGTFNDQKRGICRPWTNCSLDGKSVLVNGTKERDVVCGPSPADLSPGASSATPPAPAREPGHSPQIIFFLALTSTVVLFLLFFLVLRFSVVKRSRKKLLYIFKQPFMRPVQTTQEEDGCSCRFPEEEEGGCEL
B3: Human OX40 (receptor)
chain: LHCVGDTYPSNDRCCHECRPGNGMVSRCSRSQNTVCRPCGPGFYNDVVSSKPCKPCTWCNLRSGSERKQLCTATQDTVCRCRAGTQPLDSYKPGVDCAPCPPGHFSPGDNQACKPWTNCTLAGKHTLQPASNSSDAICEDRDPPATQPQETQGPPARPITVQPTEAWPRTSQGPSTRPVEVPGGRA
B4: Human GITR (receptor)
chain: QRPTGGPGCGPGRLLLGTGTDARCCRVHTTRCCRDYPGEECCSEWDCMCVQPEFHCGDPCCTTCRHHPCPPGQGVQSQGKFSFGFQCIDCASGTFSGGHEGHCKPWTDCTQFGFLTVFPGNKTHNAVCVPGSPPAEP

For test [1], the target named is B2. Briefly: flow cytometry on cells. On the technique in general: A flow cytometer gives signals particle by particle.
Test [2] addresses HZ-L-Yr-16-Fc. In words: flow cytometry on cells.
Test [3] addresses HZ-L-Yr-16-Fc. Briefly: ELISA. (In general: An ELISA detects its analyte on a solid surface through an enzyme-linked reagent.)

B1: in test [1], the binding result was “no binding”.

With B2, the binding result in test [2] is “binds”.

Consider B3, for which, in test [3], the binding result is listed as “no binding”.

Regarding B4, the binding result in test [3] is given as “no binding”.

The values are drawn from article PMC8237747 (Journal for Immunotherapy of Cancer, 2021).
